In US20190010233A1:

Assays:
[1] = biological target: recombinant human PD-1^ECD-hFc protein (human) (UniProt Q15116); experiment: ELISA, coated PD-1-hFc, 1 µg/mL
[2] = biological target: recombinant human PD-1^ECD-hFc protein (human) (UniProt Q15116); experiment: ELISA, coated PD-1-hFc, 0.2 µg/mL
[3] = biological target: recombinant human PD-1^ECD-hFc protein (human) (UniProt Q15116); experiment: ELISA, coated PD-1-hFc, 0.04 µg/mL
[4] = biological target: recombinant human PD-1^ECD-hFc protein (human) (UniProt Q15116); experiment: ELISA, coated PD-1-hFc, 0.008 µg/mL
[5] = biological target: recombinant human PD-1^ECD-hFc protein (human) (UniProt Q15116); experiment: ELISA, coated PD-1-hFc, 0.0001 µg/mL
[6] = biological target: recombinant human PD-1^ECD-hFc protein (human) (UniProt Q15116); experiment: ELISA, coated PD-1-hFc, 0.0003 µg/mL
[7] = biological target: recombinant human PD-1^ECD-hFc protein (human) (UniProt Q15116); experiment: ELISA, coated PD-1-hFc, 0.0016 µg/mL
[8] = biological target: recombinant human PD-1^ECD-hFc protein (human) (UniProt Q15116); experiment: ELISA, coated PD-1-hFc, 0.00001 µg/mL

Chain of recombinant human PD-1^ECD-hFc protein (human) (Q15116 25-167): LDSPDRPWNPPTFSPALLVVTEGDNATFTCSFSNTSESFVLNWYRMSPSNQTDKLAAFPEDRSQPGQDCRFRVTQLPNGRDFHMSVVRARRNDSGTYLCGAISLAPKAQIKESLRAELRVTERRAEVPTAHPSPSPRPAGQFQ

OD450 nm [1]: 0.51
OD450 nm [2]: 0.1
OD450 nm [3]: 0.49
OD450 nm [4]: 0.135
OD450 nm [5]: 0.12
OD450 nm [6]: 0.255
OD450 nm [7]: 0.19
OD450 nm [8]: 0.09
Substance: control protein (biotinylated non-PD-L1^ECD-hFc)
